Laboratory results taken from article PMC4826271, “New Structural Insights into the Genome and Minor Capsid Proteins of BK Polyomavirus using Cryo-Electron Microscopy” (Structure(London, England:1993), 2016).

B1: BK polyomavirus minor capsid protein VP2 (natural protein)
chain: MGAALALLGDLVASVSEAAAATGFSVAEIAAGEAAAAIEVQIASLATVEGITSTSEAIAAIGLTPQTYAVIAGAPGAIAGFAALIQTVSGISSLAQVGYRFFSDWDHKVSTVGLYQQSGMALELFNPDEYYDILFPGVNTFVNNIQYLDPRHWGPSLFATISQALWHVIRDDIPSITSQELQRRTERFFRDSLARFLEETTWTIVNAPINFYNYIQQYYSDLSPIRPSMVRQVAEREGTRVHFGHTYSIDDADSIEEVTQRMDLRNQQSVHSGEFIEKTIAPGGANQRTAPQWMLPLLLGLYGTVTPALEAYEDGPNQKKRRVSRGSSQKAKGTRASAKTTNKRRSRSSRS
notes: Minor capsid protein VP2 of BK polyomavirus, Dunlop strain; printed mass 38.3 kDa; same open reading frame as VP3, with an extended N terminus; The introduction says the extended N terminus of VP2 holds a site for myristoylation; also called VP2/3; VP2/VP3; source: Vero cells transfected/infected with the BK Dunlop genome; in purified virions (CsCl gradient, 1-MDa centrifugal concentrator)
B2: BK polyomavirus major capsid protein VP1 (native infectious virion, Dunlop strain) (natural protein)
chain: MAPTKRKGECPGAAPKKPKEPVQVPKLLIKGGVEVLEVKTGVDAITEVECFLNPEMGDPDENLRGFSLKLSAENDFSSDSPERKMLPCYSTARIPLPNLNEDLTCGNLLMWEAVTVQTEVIGITSMLNLHAGSQKVHEHGGGKPIQGSNFHFFAVGGEPLEMQGVLMNYRSKYPDGTITPKNPTAQSQVMNTDHKAYLDKNNAYPVECWVPDPSRNENARYFGTFTGGENVPPVLHVTNTATTVLLDEQGVGPLCKADSLYVSAADICGLFTNSSGTQQWRGLARYFKIRLRKRSVKNPYPISFLLSDLINRRTQRVDGQPMYGMESQVEEVRVFDGTERLPGDPDMIRYIDKQGQLQTKML
notes: Major capsid protein VP1 of BK polyomavirus, Dunlop strain, as assembled in the native virion; Five copies form one penton; 72 pentons form the T = 7d capsid, with VP1 in six quasi-equivalent conformations; PDB 5FUA is a homology model of BK VP1 (built on SV40, PDB 1SVA) fitted into the virion map; also called BK VP1; BKPyV VP1; source: Vero cells transfected/infected with the BK Dunlop genome; …
B3: BK polyomavirus minor capsid protein VP3 (natural protein)
chain: MALELFNPDEYYDILFPGVNTFVNNIQYLDPRHWGPSLFATISQALWHVIRDDIPSITSQELQRRTERFFRDSLARFLEETTWTIVNAPINFYNYIQQYYSDLSPIRPSMVRQVAEREGTRVHFGHTYSIDDADSIEEVTQRMDLRNQQSVHSGEFIEKTIAPGGANQRTAPQWMLPLLLGLYGTVTPALEAYEDGPNQKKRRVSRGSSQKAKGTRASAKTTNKRRSRSSRS
notes: Minor capsid protein VP3 of BK polyomavirus, Dunlop strain; printed mass 26.7 kDa; expressed from the same open reading frame as VP2 but without VP2's extended N terminus; also called VP2/3; VP2/VP3; source: Vero cells transfected/infected with the BK Dunlop genome; in purified virions (CsCl gradient, 1-MDa centrifugal concentrator)

Columns and labels:
[1] = target: BK polyomavirus major capsid protein VP1 (VP1-only virus-like particle) (BK polyomavirus) (UniProt P03088); experiment: cryo-EM structure; purified VP1-only VLPs in buffer A supplemented with 50 mM CaCl2, vitrified; FEI Polara, K2 summit in super-resolution mode; icosahedral single-particle reconstruction in RELION, 9.1 Å
[2] = target: B2; experiment: cryo-EM structure; purified native BK virions in buffer A (10 mM HEPES pH 7.9, 1 mM CaCl2, 1 mM MgCl2, 5 mM KCl), vitrified; FEI Tecnai-F20, 200 kV, K2-Summit; icosahedral single-particle reconstruction in RELION, 7.6 Å; conditions: both partners purified
[3] = target: the molecule itself; experiment: as above

Molecule: BK polyomavirus major capsid protein VP1 (VP1-only virus-like particle) (from UniProt P03088 1-362) (natural protein)
- stoichiometry N [1]: 5

Molecule: B1
- binding result [2]: binds

Molecule: B2
- stoichiometry N [3]: 5

Molecule: B3
- binding result [2]: binds
